IntAct's records for PubMed 22291198

B1: Probable E3 ubiquitin-protein ligase LOG2 (Arabidopsis thaliana (Mouse-ear cress)), Q9S752 (parent)
chain: MGNISSSGGEGRRRRRRNHTAAPPPPPPPPSSSLPPPPLPTEIQANPIVFAAVTPYPNPNPNPVYQYPASYYHHPPPGAMPLPPYDHHLQHHPPHPYHNHSWAPVAMARYPYAGHMMAQPTPYVEHQKAVTIRNDVNLKKESLRLEPDPDNPGRFLVSFTFDATVSGRISVIFFAKESEDCKLTATKEDILPPITLDFEKGLGQKFKQSSGSGIDFSVFEDVELFKAAADTEIYPLAVKAEAAPSGGENEEEERSGSKNAQITQAVYEKDKGEIKIRVVKQILWVNGTRYELQEIYGIGNTVEGDDDSADDANDPGKECVICLSEPRDTTVLPCRHMCMCSGCAKVLRFQTNRCPICRQPVERLLEIKVHGNNGSGNNTGQGETVEQE
partner: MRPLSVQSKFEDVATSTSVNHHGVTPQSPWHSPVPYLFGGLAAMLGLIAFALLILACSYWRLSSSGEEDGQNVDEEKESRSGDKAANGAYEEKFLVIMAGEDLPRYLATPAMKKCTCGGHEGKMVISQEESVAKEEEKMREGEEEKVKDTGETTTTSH
B2: Protein GLUTAMINE DUMPER 1 (Arabidopsis thaliana (Mouse-ear cress)), O81775 (parent)
chain: B1 partner
partner: B1 chain
B3: Protein GLUTAMINE DUMPER 1 (Arabidopsis thaliana (Mouse-ear cress)), O81775 (parent)
chain: B1 partner
partner: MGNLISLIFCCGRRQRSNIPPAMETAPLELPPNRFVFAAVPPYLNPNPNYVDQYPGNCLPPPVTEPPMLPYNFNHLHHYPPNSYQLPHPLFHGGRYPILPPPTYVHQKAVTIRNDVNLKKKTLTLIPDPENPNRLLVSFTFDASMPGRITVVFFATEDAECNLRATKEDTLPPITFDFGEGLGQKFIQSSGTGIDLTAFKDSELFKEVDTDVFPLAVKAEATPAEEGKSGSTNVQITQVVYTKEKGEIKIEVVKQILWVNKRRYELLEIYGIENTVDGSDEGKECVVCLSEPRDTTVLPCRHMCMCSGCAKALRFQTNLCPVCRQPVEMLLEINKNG

Variants of: B1
Settings: with gdu1_arath GDU1, O81775

| Variant | effect of a mutation on the interaction |
| --- | --- |
| G2A;C354A;C357A | decreasing interaction |

Variants of: B2
Settings: with lofg2_arath LOG2, Q9S752

| Variant | effect of a mutation on the interaction |
| --- | --- |
| G100R | disrupting interaction |

Variants of: B3
Settings: with lul1_arath LUL1, Q9LYW5

| Variant | effect of a mutation on the interaction |
| --- | --- |
| G100R | disrupting interaction |
